Here are results for two molecules from paper PMC4260453 (Molecular microbiology, 2011).

The target in this assay is T1, DnaE (Bacillus subtilis, UniProt O34623 1-1115).
T1 sequence: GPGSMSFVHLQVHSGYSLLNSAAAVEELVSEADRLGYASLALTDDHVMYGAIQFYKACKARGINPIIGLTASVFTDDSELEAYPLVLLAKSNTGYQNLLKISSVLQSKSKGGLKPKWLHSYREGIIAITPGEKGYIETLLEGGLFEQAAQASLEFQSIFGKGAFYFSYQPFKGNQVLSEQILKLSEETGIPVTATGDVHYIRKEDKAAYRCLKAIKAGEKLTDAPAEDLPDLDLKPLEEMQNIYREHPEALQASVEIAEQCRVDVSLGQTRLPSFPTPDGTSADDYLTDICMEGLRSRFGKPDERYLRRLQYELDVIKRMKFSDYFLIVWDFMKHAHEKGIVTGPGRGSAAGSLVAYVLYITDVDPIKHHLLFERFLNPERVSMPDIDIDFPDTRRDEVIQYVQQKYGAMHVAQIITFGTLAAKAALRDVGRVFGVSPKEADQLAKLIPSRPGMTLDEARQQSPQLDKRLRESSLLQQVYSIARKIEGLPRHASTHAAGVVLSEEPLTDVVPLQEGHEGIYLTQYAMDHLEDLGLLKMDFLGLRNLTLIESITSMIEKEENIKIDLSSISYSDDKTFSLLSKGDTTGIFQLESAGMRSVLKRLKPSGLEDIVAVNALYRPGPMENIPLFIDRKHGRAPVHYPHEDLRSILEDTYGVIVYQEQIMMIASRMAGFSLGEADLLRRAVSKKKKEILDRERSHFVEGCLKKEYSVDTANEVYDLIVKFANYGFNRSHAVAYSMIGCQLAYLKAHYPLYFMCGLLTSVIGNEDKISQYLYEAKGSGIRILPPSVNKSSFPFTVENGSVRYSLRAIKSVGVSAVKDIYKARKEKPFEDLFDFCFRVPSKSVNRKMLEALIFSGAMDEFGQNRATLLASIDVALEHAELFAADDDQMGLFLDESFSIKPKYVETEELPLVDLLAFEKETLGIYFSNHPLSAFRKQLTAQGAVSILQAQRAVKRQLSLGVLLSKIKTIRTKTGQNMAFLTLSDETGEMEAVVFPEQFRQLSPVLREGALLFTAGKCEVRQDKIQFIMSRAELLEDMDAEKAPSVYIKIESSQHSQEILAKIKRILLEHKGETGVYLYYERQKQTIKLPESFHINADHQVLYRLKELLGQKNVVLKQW
Briefly: far-Western, overlay or dot blot.

B1: His6-SSB (natural protein, Bacillus subtilis, UniProt P37455 1-172, looked up)
chain: MLNRVVLVGRLTKDPELRYTPNGAAVATFTLAVNRTFTNQSGEREADFINCVTWRRQAENVANFLKKGSLAGVDGRLQTRNYENQQGQRVFVTEVQAESVQFLEPKNGGGSGSGGYNEGNSGGGQYFGGGQNDNPFGGNQNNQRRNQGNSFNDDPFANDGKPIDISDDDLPF
On to B1, for which the binding result is listed as “binds”.

B2: MutS (natural protein, Bacillus subtilis)
chain: GPGSMAGYTPMIQQYLKIKAEHQDAFLFFRLGDFYEMFFEDAKKASQELEITLTSRDGGAAEKIPMCGVPYHSASAYIEQLIKKGYKVAICEQTEDPKAAKGVVKREVVQLITPGTVMDGKGIHESENNFIASVSACSNGYGLALSDLTTGENLAVLIERLEDVISEIYSVGAREIVVSGSLDADTVAQLRERCGATISIEDGETDEHVTIIEHLNNEDITKTFLRLYTYLKRTQKRSLDHLQPVQVYELEEAMKIDLYSKRNLELTETIRSKNKKGSLLWLLDETKTAMGGRLLKQWIDRPLIRVNQIEERQEMVETLMSHFFEREDLRERLKEVYDLERLAGRVAFGNVNARDLIQLKESLKQVPGIKQLVASLAHDKAKERAKRIDPCGDVLELLEEALYENPPLSVKEGNLIKDGYNQKLDEYRDASRNGKDWIARLEQQEREYTGIRSLKVGFNKVFGYYIEVTKANLHLLEEGRYERKQTLTNAERYITPELKEKEALILEAENNICELEYELFTELREKVKQYIPRLQQLAKQMSELDALQCFATISENRHYTKPEFSKDEVEVIEGRHPVVEKVMDSQEYVPNNCMMGDNRQMLLITGPNMSGKSTYMRQIALISIMAQIGCFVPAKKAVLPIFDQIFTRIGAADDLISGQSTFMVEMLEAKNAIVNATKNSLILFDEIGRGTSTYDGMALAQAIIEYVHDHIGAKTLFSTHYHELTVLEDKLPQLKNVHVRAEEYNGTVVFLHQIKEGAADKSYGIHVAQLAELPGDLIARAQDILKELEHSGNKPEVPVQKPQVKEEPAQLSFFDEAEKPAETPKLSKKEKQVIDAFKSLNILDMTPLEAMNEMYKLQKKLH
In the case of B2, the binding result is reported as “binds”.
